In US20100325744A1 (published 2010):
Where a chain is given by its changes, count along the chain named. Names and notes keep the numbering of the source.

B1: L236V (protein)
chain: ASTKGPSVFPLAPCSRSTSESTAALGCLVKDYFPEPVTVSWNSGALTSGVHTFPAVLQSSGLYSLSSVVTVPSSSLGTKTYTCNVDHKPSNTKVDKRVAPEFLGGPSVFLFPPKPKDTLMISRTPEVTCVVVDVSQEDPEVQFNWYVDGVEVHNAKTKPREEQFNSTYRVVSVLTVLHQDWLNGKEYKCKVSNKGLPSSIEKTISKAKGQPREPQVYTLPPSQEEMTKNQVSLTCVVKGFYPSDIAVEWESNGQPENNYKTTPPVLDSDGSFFLYSRLTVDKSRWQEGNVFSCSVMHEALHNHYTQKSLSLSLGK
B2: WT (protein)
chain: B1 chain with V236L
B3: Y275A (protein)
chain: B1 chain with V236L, Y275A
B4: F273A (protein)
chain: B1 chain with V236L, F273A

Target: the molecule itself
Assay: monomer to dimer conversion (% monomer vs concentration); self-association

Protein	EC50 [nM]
B1	2160
B2	39
B3	2190
B4	3060
